# According to publication PMC10191858, “DNA segment capture by Smc5/6 holocomplexes” (Nature Structural & Molecular Biology, 2023):
# T1: Smc5(G1054C), Smc5 with the engineered cysteine of the Smc5–Nse4 interface (S. cerevisiae, UniProt Q08204 1-1093, G1054C)
# T1 construct: Smc5, S. cerevisiae, subunit of the Smc5/6 hexamer; engineered cysteine G1054C for BMOE cross-linking to Nse4; Stood in the assay as a subunit of the purified hexamer (Smc5, Smc6, Nse1-4)
# T1 sequence (looked up): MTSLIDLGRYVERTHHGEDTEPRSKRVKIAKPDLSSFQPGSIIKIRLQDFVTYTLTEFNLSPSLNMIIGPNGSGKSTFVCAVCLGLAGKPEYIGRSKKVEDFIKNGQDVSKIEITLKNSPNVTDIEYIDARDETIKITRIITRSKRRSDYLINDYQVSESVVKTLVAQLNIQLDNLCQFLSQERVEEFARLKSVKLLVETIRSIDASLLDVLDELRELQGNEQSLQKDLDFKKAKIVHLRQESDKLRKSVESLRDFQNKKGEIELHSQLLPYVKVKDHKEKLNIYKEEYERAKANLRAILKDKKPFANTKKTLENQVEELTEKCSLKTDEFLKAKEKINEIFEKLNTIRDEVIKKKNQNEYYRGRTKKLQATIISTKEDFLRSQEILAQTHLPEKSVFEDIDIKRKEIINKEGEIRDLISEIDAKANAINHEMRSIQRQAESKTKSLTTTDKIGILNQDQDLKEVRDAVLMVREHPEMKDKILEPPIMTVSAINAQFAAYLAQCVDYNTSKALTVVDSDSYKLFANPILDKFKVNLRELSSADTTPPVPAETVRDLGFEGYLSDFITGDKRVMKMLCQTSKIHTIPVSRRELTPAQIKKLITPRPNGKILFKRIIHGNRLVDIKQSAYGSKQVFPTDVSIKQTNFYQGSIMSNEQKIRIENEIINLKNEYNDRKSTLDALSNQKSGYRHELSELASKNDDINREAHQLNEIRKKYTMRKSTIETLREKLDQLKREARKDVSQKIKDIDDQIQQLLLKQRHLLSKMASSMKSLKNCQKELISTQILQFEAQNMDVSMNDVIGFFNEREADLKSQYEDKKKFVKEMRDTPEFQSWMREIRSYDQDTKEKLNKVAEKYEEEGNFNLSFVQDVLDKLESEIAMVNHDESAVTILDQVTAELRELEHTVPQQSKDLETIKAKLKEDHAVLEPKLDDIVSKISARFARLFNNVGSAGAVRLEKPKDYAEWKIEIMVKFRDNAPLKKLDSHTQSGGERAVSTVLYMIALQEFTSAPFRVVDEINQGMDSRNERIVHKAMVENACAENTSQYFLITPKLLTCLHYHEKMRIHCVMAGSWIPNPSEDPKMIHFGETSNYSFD
# Target: T1, Smc5(G1054C), Smc5 with the engineered …
# Assay: cross-linking; site-specific BMOE cross-linking (1 mM, 45 s, stopped with 10 mM DTT) of engineered cysteine pairs in purified Smc5/6 hexamers at 0.5 uM; 10 mM Hepes-KOH pH 7.5, 150 mM KOAc, 2 mM MgCl2, 20% glycerol, RT; with or without Nse5/6 dimer (0.625 uM), 2 mM ATP, 5 nM plasmid DNA (25 kbp); SDS-PAGE and Coomassie staining, bands quantified
# Details: both partners purified
binder,measurement,value
"Nse5/6 dimer (loader) (complex, S. cerevisiae, Nse5, S. cerevisiae; a native cysteine of it cross-links off-target to Smc5(G1054C); Nse6, S. cerevisiae; also called Nse5/6 subcomplex; Nse5/6 complex) chain 1: MDGALINSVLYVSPRNGAHYFVELTEKHLLAFEMLNSMCLLENYDHVLLFLECQFGKSHNLAVIPFDIILVLFTLSTLSEYYKEPILRANDPYNTSRETLSRRALKLLQKYLAILKEFDSEQYNLYDLELLRCQFFLAIDTLTPKKQKWGFDRFRRTKSESGVTYRQNASVDPELDQAKTFKNPYRSYISCLEQRNTILGNRLLNLKLNEPGEFINMILWTLSNSLQESTPLFLSSHEIWMPLLEILIDLFSCRQDYFIQHEVAQNVSKSLFVQRLSESPLAVFFESLNTRNFANRFSEYVFLNCDYKLPSDNYATPVHPVYNGENTIVDTYIPTIKCSPLYKSQKSLALRRKLIGSCFKLLLRVPDGHRLITPRIVADDVIQGISRTLASFNDILQFKKFFMTENLSQESYFIPLLAEGTLSEILKDTQECVVILTLVENLSDGVSFCNEVIGLVKSKCFAFTEQCSQASYEEAVLNIEKCDVCLLVLLRYLLHLIGTEAILDAKEQLEMLHAIEKNDSGRRQWAKALNLGNDPPLLYPIVSQMFGVHDKSVIIE chain 2: MGSVNSSPNEEFETVPDSQISGFDSPLIPTSVGSYFRDDDDDEKVHPNFISDPENDSLNSDEEFSSLENSDLNLSGAKAESGDDFDPILKRTIISKRKAPSNNEDEEIVKTPRKLVNYVPLKIFNLGDSFDDTITTTVAKLQDLKKEILDSPRSNKSIVITSNTVAKSELQKSIKFSGSIPEIYLDVVTKETISDKYKDWHFISKNCHYEQLMDLEMKDTAYSFLFGSSRSQGKVPEFVHLKCPSITNLLVLFGVNQEKCNSLKINYEKKENSRYDNLCTIFPVNKMLKFLMYFYSDDDNDDVREFFLKAFICLILDRKVFNAMESDHRLCFKVLELFNEAHFINSYFEIVDKNDFFLHYRLLQIFPHLQSALLRRRFSEKQGRTETIQQNIIKEFNEFFDCKNYKNLLYFILTMYGSKFIPFGPKCQVTEYFKDCILDISNETTNDVEISILKGILNLFSKIR",binding result,binds
